According to patent US20160333075A1 (MAB EXPLORATIONS SDN BHD, published 2016):
Where a chain is given by its changes, count along the chain named.

B1: hVL1 + hVH1 E19 (antibody, V domains shown)
VH: DVQLQESGPGLVKPSQTLSLTCTVSGYSITSGFYLNWIRQHPCKGLEWIGYINYGGSINYNPSLKSRVTISRDTSKNQFSLKLSSVTAADTAVYYCATMPNSWYFDVWGRGTLVTVSS
VL: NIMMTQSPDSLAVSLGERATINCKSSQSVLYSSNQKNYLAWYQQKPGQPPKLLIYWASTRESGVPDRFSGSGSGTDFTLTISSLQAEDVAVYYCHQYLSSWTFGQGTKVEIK
B2: hVL1 + hVH2 E19 (antibody, V domains shown)
VH: B1 VH with C43G, G45K, R110T
VL: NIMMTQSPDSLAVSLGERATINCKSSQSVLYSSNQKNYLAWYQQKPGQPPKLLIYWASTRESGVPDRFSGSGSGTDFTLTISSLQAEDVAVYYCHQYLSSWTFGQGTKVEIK
B3: hVL1 + hVH3 E19 (antibody, V domains shown)
VH: B1 VH with D1E, Q5V, I38V, C43G, G45K, T69S, S84T, R110T
VL: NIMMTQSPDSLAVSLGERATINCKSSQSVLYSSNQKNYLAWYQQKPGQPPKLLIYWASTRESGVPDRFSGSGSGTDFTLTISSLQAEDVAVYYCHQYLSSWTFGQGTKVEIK
B4: Recombinant chimeric E20 VL + VH (antibody, V domains shown)
VH: EVQLVESGGGLVKPGGSLKLSCAASGFTFNIYAMSWVRQTPEKRLEWVATISDGGSYTYYPDNVKGRFTISRDNAKNNLYLQMSHLKSEDTAMYYCVRDRGNYYSRAFPYAYWGQGTLVTVSA
VL: SIVMTQTPKFLPVSAGDRVTMTCKASQSVGNNVAWYQQKSGQSPKLLIYYASNRYTGVPDRFTGSGSGTDFTFTISSVQVEDLAVYFCQQHYSSPPTFGAGTKLELK
B5: Recombinant chimeric E18 VL + VH (antibody, V domains shown)
VH: QIQLVQSGPELKKPGETVKISCKASGYTFTRYGMSWVKQAPGKGLKWMGWINTYSGVPTYADDFKGRFAFSLETSASTAYLQINNLKNEDTATYFCARRGYSNYYPMDFWGQGTSVTVSS
VL: DIKMTQSPSSMYASLGERVTITCKASQDIKSYLSWYQQKPWKSPKTLIYYAKNLADGVPSRFSGSGFGQDYSLTISSLESDDTATYYCLQHGESPYTFGSGTKLEIKR

How the values were obtained:
Experiment in all cases: cell-based or functional assay
[1] = target: enterovirus 71 (EV71) virions (enterovirus 71)
[2] = target: enterovirus 71 (EV71) virions (enterovirus 71); remark: listed apart in the source
[3] = target: enterovirus 71 (EV71) virions (enterovirus 71); remark: listed apart in the source

Row | Binder | Average IC50 [1] | IC50 (#1) [1] | IC50 (#2) [1] | Inhibitory concentration 50 (IC50), Vero ATCC [2] | end point PRNT50, Vero ATCC [2] | end point PRNT50, Vero NIBSC [2] | IC50 in ATCC cells relative to the parental antibody [3] | IC50 in NIBSC cells relative to the parental mouse antibody [3] | Inhibitory concentration 50 (IC50), Vero NIBSC [2]
1 | B1 | 0.0892 µg/mL | 0.0565 µg/mL | 0.122 µg/mL |  |  |  |  |  | 
2 | B2 | 0.119 µg/mL | 0.118 µg/mL | 0.121 µg/mL |  |  |  |  |  | 
3 | B3 | 0.0896 µg/mL | 0.0965 µg/mL | 0.0826 µg/mL |  |  |  |  |  | 
4 | B4 |  |  |  | 3.18 µg/mL | 5000 ng/mL | > 10000 ng/mL |  |  | 
5 | B5 |  |  |  | 0.585 µg/mL | 625 ng/mL | 2500 ng/mL | ~2 fold | ~5 fold | 0.966 µg/mL
